The assay concerns the target SARS-CoV-2 spike-protein trimers. Description: SEC + other: negative-stain electron microscopy.

As to SARS-CoV-2 spike-protein trimers, the stoichiometry N (as a rule, a count of units in the complex or per binding partner) amounted to 3.

The values are drawn from article PMC10197516.
